Laboratory results taken from publication PMC3772059.

Tested on: TTF-IΔN348
Assay: MST
Conditions: 5 mM MgCl2; Hill coefficient 1; MST: 50 nM DNA, 5 nM-2.4 uM protein, 80 mM Tris-HCl pH 7.6, 80 mM KCl, 0.2 mM EDTA, 5 mM MgCl2, 10% glycerol, 0.05% IGEPAL CA-630, 10 min at 30 C; EMSA and …

T2 Sal-box 30-mer oligonucleotide
Kd: 500 nM
